Assay results reported in patent publication US6348573B1, “Compositions and methods for identifying apoptosis signaling pathway inhibitors and activators” (The Regents of the University of Michigan, priority 1998, dated 2002).

What was measured:
FADD = biological target: T1, FADD (Homo sapiens, UniProt Q13158); experiment: In vitro phosphorylation of recombinant FADD by RICK immunoprecipitates; assay type: biochemical; settings: immunoprecipitates from 293T cells, 5 μM [γ-32P]ATP
T1 construct: made in house
T1 sequence (Q13158 1-208): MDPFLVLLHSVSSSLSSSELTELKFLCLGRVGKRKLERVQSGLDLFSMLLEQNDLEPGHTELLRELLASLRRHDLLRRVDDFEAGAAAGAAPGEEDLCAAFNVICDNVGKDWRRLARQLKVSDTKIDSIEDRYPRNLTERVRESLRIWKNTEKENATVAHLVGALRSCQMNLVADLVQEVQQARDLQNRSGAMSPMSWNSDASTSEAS
Source text: CIPERK proteins in total lysate were detected by immunoblotting with mAb to Flag (middle panel). Recombinant FADD on the same filter used in (A) was detected by immunoblotting, with rabbit polyclonal anti-(His)6 antibody (lower panel). Note CIPERK was autophosphorylated. The estimated molecular size is shown on the left [293T cells were transfected with vector control or plasmid expressing Flag-CIPERK (WT) or Flag-CIPERK-K38M (mt), and then CIPERK proteins were immunoprecipitated by mAb to Flag and incubated with recombinant FADD and 5 μM [γ-^32P]ATP].

RICK = RICK (Homo sapiens, UniProt O43353); experiment: Autophosphorylation of RICK; settings: immunoprecipitated from 293T cells, [γ-32P]ATP
RICK, sequence (O43353 with tags, fused parts or gaps): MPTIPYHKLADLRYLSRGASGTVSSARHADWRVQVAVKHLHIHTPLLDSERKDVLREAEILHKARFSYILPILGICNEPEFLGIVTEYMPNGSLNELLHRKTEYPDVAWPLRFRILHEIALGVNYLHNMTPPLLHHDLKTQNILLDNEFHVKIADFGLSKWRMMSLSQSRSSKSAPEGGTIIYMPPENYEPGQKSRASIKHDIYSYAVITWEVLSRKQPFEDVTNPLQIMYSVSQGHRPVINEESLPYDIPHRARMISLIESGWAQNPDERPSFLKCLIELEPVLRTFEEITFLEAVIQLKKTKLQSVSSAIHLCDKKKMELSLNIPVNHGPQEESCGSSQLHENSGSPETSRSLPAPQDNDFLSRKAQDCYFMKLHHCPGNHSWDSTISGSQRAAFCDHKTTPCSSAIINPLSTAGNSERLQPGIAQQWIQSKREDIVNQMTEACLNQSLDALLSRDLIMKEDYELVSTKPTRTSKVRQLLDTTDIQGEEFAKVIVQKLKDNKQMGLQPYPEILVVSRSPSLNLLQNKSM

Substance: RICK-K38M: RICK ATP-binding site mutant, lysine at position 38 replaced by methionine
- phosphorylation of recombinant FADD (FADD): did not
- auto-phosphorylation in vitro (RICK): dramatically decreased
